Test results published in US12397037B2, “Methods and compositions for immunomodulation” (CHILDREN'S MEDICAL CENTER CORPORATION, priority 2014, dated 2025).

Tests used:
[1] = test system: U87MG cells; test: Human Phospho-Kinase Array, U87MG cells treated with SEMA3F; type: cell-based; details: 30 minutes
Protocol: (§1) FIG. 28A depicts U87MG cells untreated (control) or following treatment with SEMA3F (640 ng/ml) for 30 minutes. Cell lysates were evaluated by phosphoprotein kinase antibody array. FIG. 28B depicts results of the array validated by Western blot analysis. FIG. 28C depicts U87MG cells treated with SEMA3F (640 ng/ml) as a time course up to 60 minutes and were analyzed by Western blot. FIGS. 28B-28C are representative of 3 independent experiments. FIG. 28D depicts U87MG, Jurkat and HUVEC cells treated with SEMA3F (200, 600, 1800 ng/ml, bars from left to right) for 15 minutes (grey bars) or 30 minutes (black bars); as a positive control, HUVEC were treated with VEGF-A (25 ng/ml) for 15 and 30 minutes. In addition, HUVEC were pre-treated with SEMA3F (1800 ng/ml) or PBS as a control for 30 minutes and subsequently VEGF-A (25 ng/ml) was added to the culture for 15 and 30 minutes. PI-3K activity was analyzed by ELISA according to the manufacturer's instructions. Data represent the mean±SD of 3 experiments.
(§2) SEMA3F inhibits Akt, mTOR, and S6K phosphorylation. To determine the effect of SEMA3F on intracellular signaling responses, levels of phosphokinases in the NRP2-expressing human glioblastoma cell line U87MG were profiled.
Phospho-kinase array: The Human Phospho-Kinase Array Kit (ARY003) was obtained from R&D Systems. U87MG cells were treated with SEMA3F which was previously found to induce cytoskeletal collapse and inhibit RhoA activity (6). […] Thus, a concentration at 640 ng/ml was optimized to analyze SEMA3F signaling pathways. Cell lysates were collected at 30 minutes after SEMA3F treatment and the levels of phosphoproteins were analyzed with this array, according to the manufacturer's instructions.

[2] = test system: PI-3K; test: PI3-Kinase Activity ELISA; type: cell-based, human
Protocol: as §1, §2
The VEGF-A (DVE00) ELISA kit was obtained from R&D Systems (Minneapolis, MN). […]

B1: SEMA3F: Human recombinant full-length His-Myc-tagged SEMA3F, secreted by transfected 293T cells and purified; class 3 semaphorin, NRP-2 ligand (protein, listed as Homo sapiens)
chain: MLVAGLLLWASLLTGAWPSFPTQDHLPATPRVRLSFKELKATGTAHFFNFLLNTTDYRILLKDEDHDRMYVGSKDYVLSLDLHDINREPLIIHWAASPQRIEECVLSGKDVNGECGNFVRLIQPWNRTHLYVCGTGAYNPMCTYVNRGRRAQATPWTQTQAVRGRGSRATDGALRPMPTAPRQDYIFYLEPERLESGKGKCPYDPKLDTASALINEELYAGVYIDFMGTDAAIFRTLGKQTAMRTDQYNSRWLNDPSFIHAELIPDSAERNDDKLYFFFRERSAEAPQSPAVYARIGRICLNDDGGHCCLVNKWSTFLKARLVCSVPGEDGIETHFDELQDVFVQQTQDVRNPVIYAVFTSSGSVFRGSAVCVYSMADIRMVFNGPFAHKEGPNYQWMPFSGKMPYPRPGTCPGGTFTPSMKSTKDYPDEVINFMRSHPLMYQAVYPLQRRPLVVRTGAPYRLTTIAVDQVDAADGRYEVLFLGTDRGTVQKVIVLPKDDQELEELMLEEVEVFKDPAPVKTMTISSKRQQLYVASAVGVTHLSLHRCQAYGAACADCCLARDPYCAWDGQACSRYTASSKRRSRRQDVRHGNPIRQCRGFNSNANKNAVESVQYGVAGSAAFLECQPRSPQATVKWLFQRDPGDRRREIRAEDRFLRTEQGLLLRALQLSDRGLYSCTATENNFKHVVTRVQLHVLGRDAVHAALFPPLSMSAPPPPGAGPPTPPYQELAQLLAQPEVGLIHQYCQGYWRHVPPSPREAPGAPRSPEPQDQKKPRNRRHHPPDT
modifications: His-Myc tag
notes: Human recombinant full-length His-Myc-tagged SEMA3F, secreted by transfected 293T cells and purified; class 3 semaphorin, NRP-2 ligand
[1]; SEMA3F 640 ng/ml, Image J
  intensity of dot/phosphoprotein AMPKa1 (T174): 0.269
  intensity of dot/phosphoprotein AMPKa2 (T172): 0.300
  intensity of dot/phosphoprotein Akt (S473): 0.396
  intensity of dot/phosphoprotein Akt (T308): 0.294
  intensity of dot/phosphoprotein CREB (S133): 0.295
  intensity of dot/phosphoprotein Chk-2 (T68): 0.297
  intensity of dot/phosphoprotein ERK1/2 (T202/Y204, T185/Y187): 0.301
  intensity of dot/phosphoprotein FAK (Y397): 0.275
  intensity of dot/phosphoprotein Fqr (Y412): 0.264
  intensity of dot/phosphoprotein Fyn (Y420): 0.276
  intensity of dot/phosphoprotein GSK-3a/b (S21/S9): 0.284
  intensity of dot/phosphoprotein HSP27 (S78/S82): 0.277
  intensity of dot/phosphoprotein Hck (Y411): 0.270
  intensity of dot/phosphoprotein JNK pan (T183/Y185, T221/Y223): 0.287
  intensity of dot/phosphoprotein Lck (Y394): 0.269
  intensity of dot/phosphoprotein Lyn (Y397): 0.269
  intensity of dot/phosphoprotein MEK1/2 (S218/S222, S222/S226): 0.277
  intensity of dot/phosphoprotein MSK1/2 (S376/S360): 0.293
  intensity of dot/phosphoprotein PLCq-1 (Y783): 0.262
  intensity of dot/phosphoprotein Paxillin (Y118): 0.264
  intensity of dot/phosphoprotein Pyk2 (Y402): 0.251
  intensity of dot/phosphoprotein RSK1/2 (S221/S227): 0.307
  intensity of dot/phosphoprotein RSK1/2/3 (S380/S386/S377): 0.320
  intensity of dot/phosphoprotein STAT1 (Y701): 0.298
  intensity of dot/phosphoprotein STAT2 (Y689): 0.305
  intensity of dot/phosphoprotein STAT3 (Y705): 0.270
  intensity of dot/phosphoprotein STAT4 (Y693): 0.285
  intensity of dot/phosphoprotein STAT5a (Y694): 0.281
  intensity of dot/phosphoprotein STAT5a/b (Y694/Y699): 0.311
  intensity of dot/phosphoprotein STAT5b (Y699): 0.270
  intensity of dot/phosphoprotein STAT6 (Y641): 0.304
  intensity of dot/phosphoprotein Src (Y419): 0.289
  intensity of dot/phosphoprotein TOR (S2448): 0.281
  intensity of dot/phosphoprotein Yes (Y426): 0.289
  intensity of dot/phosphoprotein b-Catenin: 0.323
  intensity of dot/phosphoprotein c-Jun (S63): 0.263
  intensity of dot/phosphoprotein eNOS (S1177): 0.240
  intensity of dot/phosphoprotein p27 (T157): 0.249
  intensity of dot/phosphoprotein p27 (T198): 0.242
  intensity of dot/phosphoprotein p38a (T180/Y182): 0.268
  intensity of dot/phosphoprotein p53 (S15): 0.312
  intensity of dot/phosphoprotein p53 (S46): 0.321
  intensity of dot/phosphoprotein p53 (S392): 0.312
  intensity of dot/phosphoprotein p70 S6 Kinase (T229): 0.264
  intensity of dot/phosphoprotein p70 S6 Kinase (T389): 0.241
  intensity of dot/phosphoprotein p70 S6 Kinase (T421/S424): 0.299
[1]; SEMA3F vs Control, 640 ng/ml
  Ratio AMPKa1 (T174): 92.7
  Ratio AMPKa2 (T172): 94.5
  Ratio Akt (S473): 77.4
  Ratio Akt (T308): 92.6
  Ratio CREB (S133): 91.3
  Ratio Chk-2 (T68): 93.4
  Ratio ERK1/2 (T202/Y204, T185/Y187): 91.2
  Ratio FAK (Y397): 87.7
  Ratio Fqr (Y412): 94.1
  Ratio Fyn (Y420): 93.1
  Ratio GSK-3a/b (S21/S9): 91.0
  Ratio HSP27 (S78/S82): 94.0
  Ratio Hck (Y411): 91.4
  Ratio JNK pan (T183/Y185, T221/Y223): 91.5
  Ratio Lck (Y394): 94.2
  Ratio Lyn (Y397): 93.7
  Ratio MEK1/2 (S218/S222, S222/S226): 92.8
  Ratio MSK1/2 (S376/S360): 92.4
  Ratio PLCq-1 (Y783): 95.1
  Ratio Paxillin (Y118): 95.8
  Ratio Pyk2 (Y402): 93.1
  Ratio RSK1/2 (S221/S227): 97.8
  Ratio RSK1/2/3 (S380/S386/S377): 98.8
  Ratio STAT1 (Y701): 98.2
  Ratio STAT2 (Y689): 95.3
  Ratio STAT3 (Y705): 93.4
  Ratio STAT4 (Y693): 96.4
  Ratio STAT5a (Y694): 94.8
  Ratio STAT5a/b (Y694/Y699): 90.1
  Ratio STAT5b (Y699): 92.6
  Ratio STAT6 (Y641): 96.3
  Ratio Src (Y419): 91.0
  Ratio TOR (S2448): 91.8
  Ratio Yes (Y426): 94.6
  Ratio b-Catenin: 91.6
  Ratio c-Jun (S63): 94.3
  Ratio eNOS (S1177): 93.9
  Ratio p27 (T157): 94.3
  Ratio p27 (T198): 94.0
  Ratio p38a (T180/Y182): 91.8
  Ratio p53 (S15): 96.7
  Ratio p53 (S46): 93.6
  Ratio p53 (S392): 94.0
  Ratio p70 S6 Kinase (T229): 100.0
  Ratio p70 S6 Kinase (T389): 95.6
  Ratio p70 S6 Kinase (T421/S424): 97.4
[2]; U87MG, Jurkat and HUVEC, SEMA3F 200, 600, 1800 ng/ml, 15 or 30 minutes
  PI-3K activity: inhibited PI-3K activity
[2]; endothelial cells (HUVEC) pre-treated with SEMA3F 1800 ng/ml for 30 minutes, then VEGF-A 25 ng/ml
  VEGF-induced PI-3K activation: inhibited subsequent VEGF-induced PI-3K activation
